Values quoted from earlier work, collected in US10421954B2, “Hybrid polymers, pharmaceutical compositions and methods of synthesizing the same” (New York University, priority 2013, dated 2019).

Details: literature value (ref. 25) for marketed PTH (1-34) (Forteo)

## CC[C@H](C)[C@H](NC(=O)[C@H](CCC(=O)O)NC(=O)[C@H](CO)NC(=O)[C@@H](NC(=O)[C@@H](N)CO)C(C)C)C(=O)N[C@@H](CCC(N)=O)C(=O)N[C@@H](CC(C)C)C(=O)N[C@@H](CCSC)C(=O)N[C@@H](Cc1cnc[nH]1)C(=O)N[C@@H](CC(N)=O)C(=O)N[C@@H](CC(C)C)C(=O)NCC(=O)N[C@@H](CCCCN)C(=O)N[C@@H](Cc1cnc[nH]1)C(=O)N[C@@H](CC(C)C)C(=O)N[C@@H](CC(N)=O)C(=O)N[C@@H](CO)C(=O)N[C@@H](CCSC)C(=O)N[C@@H](CCC(=O)O)C(=O)N[C@@H](CCCN=C(N)N)C(=O)N[C@H](C(=O)N[C@@H](CCC(=O)O)C(=O)N[C@@H](Cc1c[nH]c2ccccc12)C(=O)N[C@@H](CC(C)C)C(=O)N[C@@H](CCCN=C(N)N)C(=O)N[C@@H](CCCCN)C(=O)N[C@@H](CCCCN)C(=O)N[C@@H](CC(C)C)C(=O)N[C@@H](CCC(N)=O)C(=O)N[C@@H](CC(=O)O)C(=O)N[C@H](C(=O)N[C@@H](Cc1cnc[nH]1)C(=O)N[C@@H](CC(N)=O)C(=O)N[C@@H](Cc1ccccc1)C(=O)O)C(C)C)C(C)C [PTH (1-34), parathyroid hormone 1-34]
  half-life in serum: ~5 min
